# In patent US20060026702A1, “Phosphoinositide 3-kinase mediated inhibition of GPCRs” (DUKE UNIVERSITY, priority 2002, published 2006):
# B1: HEAT: 197 amino acid HEAT domain of PI3Kγ, FLAG epitope-tagged (SEQ ID NO: 2), overexpressed in cells (protein, listed as Homo sapiens)
# chain: MDYKDDDDKHPIALPKHQPTPDDRVRAEMPNQLRKQLEAIIATDTAEDKELLWHFRYESLKHPKAYPKLFSSVKWGQQEIVAKTYQLLARREVWDQSALDVGLTMQLLDCNFSDENVRAIAVQKLESLEDDDVLHYLLQLVQAVKFEPYHDSALARFLLKRGLRNKRIGHFLFWFLRSEIAQSRHYQQRFAVILEAYLRGCGTA
# modifications: FLAG tag
# Legend:
# Assay type in all cases: cell-based
# β2AR = β2AR sequestration in HEK-293 cells by 125I-Cyanopindolol binding; conditions: 1 μM isoproterenol, 0-30 min; FLAG-HEAT co-transfected
# Procedure: Determination of β2AR Sequestration in HEK-293 Cells by ^125I-Cyanopindolol (CYP) Binding—β2AR sequestration was performed as previously described. Briefly, HEK-293 cells were plated at a density of 2.5×10^6 cells/dish and transfected the following day with plasmids containing either the β2AR (150-250 ng), β2AR (250 ng) and HEAT domain (4 μg), PI3Kγ (4.0 μg) or ΔPI3Kγ (4.0 μg) cDNAs. Twelve hours after transfection cells were split into six well Falcon plates at a density of 750,000 cells/well. […] To determine the amount of internalized receptor, 100 μl aliquots of whole cells were added to 150 μl of binding buffer (75 mM Tris-HCl, 10 mM MgCl2, 5 mM EDTA (pH 7.5)). Total binding was determined in the presence of 175 pM ^125I-CYP alone, the number of internalized receptors were determined by using 175 pM ^125I-CYP plus 100 nM CGP12177, and non-specific binding was determined using 175 pM ^125I-CYP plus 1 μM propranolol. Sequestration was calculated as the ratio of (specific receptor binding of ^125I-CYP in the presence of CGP12177)/(specific receptor binding of ^125I-CYP in the absence of CGP12177).
# β2AR-YFP = target: T1, β2AR-YFP (Homo sapiens, UniProt P07550); assay: Endocytosis of β2AR-YFP in live cells by confocal microscopy; conditions: 10 μM isoproterenol, 10 min; HEAT co-expressed
# T1 construct: expressed in transfected cells; host or cells: HEK 293
# Procedure: (§1) Confocal Microscopy—Confocal microscopy was performed as previously described. […] Cells were split into 35 mm^2 dishes with glass bottoms for observation using a Zeiss LSM-510 confocal microscope. […] For analyses of the HEAT domain, HEK 293 cells were transfected with the plasmids containing cDNAs encoding either the β2AR-YFP (2 μg) or β2AR-YFP (2 μg) and HEAT domain (4 μg). Cells were plated onto glass bottom dishes for observation in the confocal microscope. […] Cells were permeablized with 0.1% Triton X-100 in phosphate-buffered saline for 20 min, incubated in 1% BSA in phosphate-buffered saline for 1 hr. Cells were washed with 1× phosphate-buffered saline and incubated with anti-HA or anti-FLAG monoclonal antibody (1:250) with 1% BSA in 1× phosphate-buffered saline for 1 hr. Cells were washed and incubated with goat anti-mouse IgG conjugated with Texas Red (1:500) (Molecular Probes) for 1 hr. Samples were visualized using single sequential line excitation filters at 488 and 568 nm and emission filter sets at 505-550 nm for GFP detection and 585 for Texas Red detection.
# Prior to agonist, the distribution of β2AR-YFP was found distinctly at the plasma membrane (FIG. 11B, panel 1). […] With time, this was followed by the formation of cytoplasmic aggregates (FIG. 11B, panel 3), and then with the complete loss of membrane fluorescence (FIG. 11B, panels 3 and 7) (arrowheads).
# β-arrestin2-GFP = β-arrestin2-GFP recruitment to the membrane by confocal microscopy; conditions: isoproterenol; co-expressed mutant protein
# Procedure: as §1
# To exclude these possibilities cells were co-transfected with plasmids containing FLAG β2AR, β-arrestin2-GFP and either PI3Kγ or ΔPI3Kγ cDNAs, and were monitored for the recruitment of β-arrestin2-GFP using confocal microscopy. […] Marked redistribution of β-arrestin2-GFP to the membrane occurred within 2.5 minutes. […]
# β2AR complex = assay: Recruitment of AP-2 adaptin and clathrin to the agonist-stimulated β2AR complex (immunoprecipitation, immunoblot); conditions: HEAT co-transfected
# Procedure: Immunoblotting and Detection—Immunoblotting and detection of PI3K, βARK1, HA-PI3Kγ, HA-ΔPI3Kγ, Myc-PI3Kα, FLAG-HEAT, PI3KΔHEAT-HA, FLAG-β2AR, HA-β2AR, β-adaptin and clathrin was carried out as previously described. Immunoprecipitating antibodies were added to 500 μg of cell lysate in lysis buffer followed by the addition of 35 μl of 1:1 Protein A- or G-agarose. Samples were rocked overnight at 4° C. then centrifuged at 12,000×g for 5 min. Immunoprecipitates were washed twice with lysis buffer, twice with 1×PBS and resuspended in 1×SDS-gel loading buffer. Proteins were resolved by SDS-polyacrylamide gel electrophoresis and blotted on to PVDF membrane (Bio-Rad). Blots were incubated with antibodies recognizing PI3K, Myc (Santa-Cruz), β-adaptin, clathrin heavy chain (BD Transduction Laboratories), HA (Roche Molecular Biochemicals) and FLAG (Sigma) at 1:2000 dilution and the βARK1 monoclonal antibody at 1:10,000 dilution. Blots were subsequently incubated with appropriate secondary antibody (1:2000 dilution) conjugated to horseradish peroxidase (Amersham Pharmacia Biotech) and detection was carried out using enhanced chemiluminescence. […]
# The present inventors determined that βARK1-mediated localization of PI3K within the activated receptor complex is responsible for the generation of D-3 phosphatidylinositols necessary for the efficient recruitment of adaptin to the P2AR complex. […]
molecule,measurement,setting,value
B1,attenuation in the rate of β2AR sequestration,β2AR,> 60%
same,receptor endocytosis (redistribution of β2AR-YFP),β2AR-YFP,completely inhibited
same,recruitment of β-arrestin2-GFP to the receptor/membrane after agonist,β-arrestin2-GFP,did not affect
same,recruitment of adaptin to the agonist-stimulated β2AR complex,β2AR complex; 10 μM isoproterenol 0-10 min,completely abolished
same,clathrin co-immunoprecipitated with the receptor after agonist,β2AR complex,attenuated
